According to the supplement of paper PMC10126150:
± gives the standard deviation of the averaged measurements.

Tested on: ATP
Experiment: switch fluorescence ratio, 500 uM ATP over buffer (Cy3 cluster intensity, sum of 5 cycles each) (fold (ratio)); higher = stronger signal-on switching upon ATP binding; sequences stand for … in TCGTCGGCAGCGTCAGATGTGTATAAGAGACAGTTTTTTTTTTTTTTTTTTTTTTTTT…TC
Conditions: aptamer strand: ATP DNA aptamer (quencher-CACCTGGGGGAGTATTGCGGAGGAAGG + anchor), 100 nM annealed; ATP concentration: 500 uM
In short: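 Switching-strand clusters labelled with Cy3 on a modified Illumina MiSeq flow-cell were annealed to 100 nM quencher-labelled ATP aptamer, imaged in selection buffer, and re-imaged after 15 min with 500 uM ATP at 22 °C. This was done over five cycles with NaOH stripping and re-annealing in between. The fluorescence ratio is summed target-cycle over summed buffer-cycle Cy3 intensity per cluster, averaged per switch-domain sequence, excluding clusters outside 100-1000 RFU.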
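Further: ATP exposure 15 min at 22 °C before imaging.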

| Sequence | switch fluorescence ratio |
| --- | --- |
| ATGGGTTCGC | 0.976 ± 0.035 |
| ATGGGTTCTG | 0.999 ± 0.017 |
| ATGGTAAAAA | 1.05 ± 0.1 |
| ATGGTAAACC | 1.16 ± 0.066 |
| ATGGTACCCT | 1.038 ± 0.0052 |
| ATGGTACCGT | 1.02 ± 0.014 |
| ATGGTAGGGT | 1.01 ± 0.018 |
| ATGGTCAGAT | 0.994 ± 0.027 |
| ATGGTCAGGC | 0.973 ± 0.019 |
| ATGGTCATGT | 0.9943 ± 0.0072 |
| ATGGTCCATG | 0.995 ± 0.022 |
| ATGGTCCGGT | 0.988 ± 0.015 |
| ATGGTCTGGG | 0.971 ± 0.011 |
| ATGGTGCAGG | 1.06 ± 0.011 |
| ATGGTGGAGG | 1.01 ± 0.024 |
| ATGGTGGCAT | 1.01 ± 0.012 |
| ATGGTGGGGC | 0.979 ± 0.047 |
| ATGGTGTCTT | 0.961 ± 0.023 |
| ATGGTGTGCG | 1.01 ± 0.025 |
| ATGGTGTGGG | 1.03 ± 0.021 |
| ATGGTGTTTT | 0.9803 ± 0.008 |
| ATGGTTAGCT | 1.02 ± 0.027 |
| ATGGTTAGGG | 1.03 ± 0.033 |
| ATGGTTCCAC | 0.997 ± 0.024 |
| ATGGTTTAGG | 0.988 ± 0.038 |
| ATGGTTTGGG | 0.99 ± 0.045 |

| Sequence | switch fluorescence ratio |
| --- | --- |
| ATGGTTTTG | 0.975 ± 0.047 |
| ATGGTTTTT | 0.984 ± 0.022 |
| ATGTAACTTT | 1.16 ± 0.27 |
| ATGTAAGAGG | 0.9754 ± 0.0093 |
| ATGTAAGGAG | 1.02 ± 0.018 |
| ATGTAATGGT | 1.01 ± 0.03 |
| ATGTAATTAA | 0.964 ± 0.046 |
| ATGTAATTTC | 0.9987 ± 0.0036 |
| ATGTACATTT | 1.068 ± 0.0059 |
| ATGTAGACGG | 0.984 ± 0.011 |
| ATGTAGAGGC | 0.987 ± 0.026 |
| ATGTAGATAT | 1.01 ± 0.021 |
| ATGTAGCATC | 1.56 ± 0.028 |
| ATGTAGGGTC | 1.02 ± 0.02 |
| ATGTAGGGTG | 1.008 ± 0.0039 |
| ATGTAGGTTG | 0.988 ± 0.029 |
| ATGTATATAA | 0.985 ± 0.018 |
| ATGTATGTGC | 0.997 ± 0.041 |
| ATGTATGTTG | 0.982 ± 0.072 |
| ATGTATTACT | 1.03 ± 0.033 |
| ATGTCAGAGG | 0.977 ± 0.041 |
| ATGTCAGCGC | 1 ± 0.044 |
| ATGTCAGGGG | 1.14 ± 0.021 |
| ATGTCAGGTG | 4.1 ± 0.71 |
| ATGTCCGGG | 0.968 ± 0.045 |
| ATGTCCTAGC | 1.03 ± 0.0038 |

| Sequence | switch fluorescence ratio |
| --- | --- |
| ATGTCGGGCA | 0.986 ± 0.064 |
| ATGTCGTGTG | 0.9923 ± 0.0066 |
| ATGTGAGGGG | 0.986 ± 0.029 |
| ATGTGCGGGG | 0.99 ± 0.019 |
| ATGTGGAATG | 0.994 ± 0.037 |
| ATGTGGAGAC | 0.9921 ± 0.005 |
| ATGTGGGTCT | 1.02 ± 0.056 |
| ATGTGGGTGT | 1.02 ± 0.013 |
| ATGTGGGTTG | 1.03 ± 0.022 |
| ATGTGGTGAC | 0.978 ± 0.039 |
| ATGTGGTTCC | 1.004 ± 0.0025 |
| ATGTGTATTT | 1.03 ± 0.023 |
| ATGTGTGGGG | 1.01 ± 0.063 |
| ATGTGTGTTG | 1.04 ± 0.046 |
| ATGTTAAAGG | 0.998 ± 0.016 |
| ATGTTAACGG | 1.01 ± 0.012 |
| ATGTTACATT | 1.01 ± 0.038 |
| ATGTTAGATT | 0.996 ± 0.029 |
| ATGTTAGCGT | 0.9941 ± 0.0048 |
| ATGTTAGTAC | 1.03 ± 0.058 |
| ATGTTATGG | 1.01 ± 0.011 |
| ATGTTATTA | 0.975 ± 0.021 |
| ATGTTATTGT | 0.98 ± 0.049 |
| ATGTTATTTA | 1.01 ± 0.025 |
| ATGTTCAGTT | 0.974 ± 0.012 |
